Laboratory results: patent US20100249383A1, “Novel Ligand Involved In The Transmigration Of Leukocytes Across the Endothelium and Uses Therefor” (The Regents of The University of California and The Burnham …, priority 2001, published 2010)

B1: amphoterin (baculovirus expressed rat amphoterin) (ligand, UniProt P63159 2-215, looked up)
chain: GKGDPKKPRGKMSSYAFFVQTCREEHKKKHPDASVNFSEFSKKCSERWKTMSAKEKGKFEDMAKADKARYEREMKTYIPPKGETKKKFKDPNAPKRPPSAFFLFCSEYRPKIKGEHPGLSIGDVAKKLGEMWNNTAADDKQPYEKKAAKLKEKYEKDIAAYRAKGKPDAAKKGVVKAEKSKKKKEEEDDEEDEEDEEEEEEEEDEDEEEDDDDE
modifications: radioiodinated (125I) in the binding assays
notes: the only purified amphoterin in the materials is the baculovirus expressed rat protein; also called recombinant amphoterin
B2: human S100A8 (other, UniProt P05109 1-93, looked up)
chain: MLTELEKALNSIIDVYHKYSLIKGNFHAVYRDDLKKLLETECPQYIRKKGADVWFKELDINTDGAVNFQEFLILVIKMGVAAHKKSHEESHKE
notes: also called MRP8; CP-10

Key:
[1] = molecular target: T1, RAGE deglycosylated by PNGase F (bovine, UniProt Q28173 23-416, N-linked oligosaccharides removed by PNGase F (mass decreased by about 4500 daltons)); assay: saturation binding of 125I amphoterin to immobilized RAGE deglycosylated by PNGase F
T1 construct: also called deglycosylated RAGE; PNGase F digested RAGE
T1 sequence (looked up): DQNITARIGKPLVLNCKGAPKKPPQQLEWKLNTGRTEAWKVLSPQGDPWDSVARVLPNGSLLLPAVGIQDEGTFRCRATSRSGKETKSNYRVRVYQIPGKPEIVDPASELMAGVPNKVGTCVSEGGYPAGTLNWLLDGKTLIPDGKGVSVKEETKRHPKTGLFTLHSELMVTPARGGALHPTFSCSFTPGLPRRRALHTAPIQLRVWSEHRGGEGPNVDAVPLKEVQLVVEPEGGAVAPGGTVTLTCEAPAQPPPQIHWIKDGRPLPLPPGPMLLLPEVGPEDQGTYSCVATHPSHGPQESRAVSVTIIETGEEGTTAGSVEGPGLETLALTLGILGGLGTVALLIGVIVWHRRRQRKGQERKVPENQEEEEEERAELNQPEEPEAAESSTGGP
Description: (§1) Amphoterin was radioiodinated using Na ¹²⁵I and Iodo-Beads Iodinating Reagent (Pierce) to a specific activity of 5×10³ cpm/ng protein. Saturation binding experiments were done by a slight modification of the method of Hori et al (Hori at al., J. Biol. Chem., 270:25752-61 [1995]). Briefly, purified RAGE was immobilized on microliter wells and the wells blocked with 3% BSA. Wells were incubated at 4° C. overnight with increasing concentrations of ¹²⁵I amphoterin in HBSS containing 0.1% BSA in the presence or absence of desialylated carboxylate-enriched (COO⁻) or CONHMe bovine lung glycopeptides, or 20 μg/ml mAbGB3.1 or an unrelated anti-carbohydrate monoclonal antibody, or 100 fold excess of unlabeled amphoterin. Binding was also tested on RAGE deglycosylated by PNGase F under non-denaturing conditions. Wells were washed, bound amphoterin was eluted with 2 M NaCl, and radioactivity was measured using a gamma counter. Non-linear regression analysis was done using the GraphPad Prism program.
The binding of a single concentration of labeled ligand was also tested in presence of various concentrations of COO⁻ or neutral glycopeptides. […] Binding was also found to be reduced in presence of mAbGB3.1, while a non-relevant antibody is ineffective (FIG. 24, Panel C).

[2] = molecular target: T2, RAGE from bovine lung (native, purified/immunoprecipitated) (bovine, UniProt Q28173 23-416, carries PNGaseF-sensitive carboxylated N-linked oligosaccharides); assay: saturation binding of 125I amphoterin to immobilized RAGE in presence of soluble COO- glycopeptides
T2 construct: Released from mAbGB3.1 beads after immunoprecipitation of bovine lung homogenate; also called bovine lung RAGE; bovine RAGE
T2 sequence (looked up): T1 sequence (looked up)
Description: as §1
(§2) Specific binding is defined as the total binding minus non-specific binding measured in presence of 100-fold excess of unlabeled amphoterin. The […] binding was 3-4% of total binding. Then, the possibility that amphoterin binding is dependent upon the N-glycans on RAGE was examined.

[3] = molecular target: T2, RAGE from bovine lung (native, …); assay: saturation binding of 125I amphoterin to RAGE immobilized on microtiter wells, non-linear regression
Description: as §1, §2

[4] = molecular target: T3, human S100A9 (human, UniProt P06702 2-114, limits assumed); assay: co-purification from human neutrophil cytosol
T3 construct: also called MRP14; MRP9
T3 sequence (looked up): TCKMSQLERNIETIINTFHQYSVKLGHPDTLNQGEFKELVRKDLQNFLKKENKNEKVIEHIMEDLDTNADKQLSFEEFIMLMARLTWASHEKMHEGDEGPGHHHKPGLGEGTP
Source text: Chem., 266:7706 [1991]). […] The proteins remained as heteromeric complexes through purification, were even retained on YM10 and YM30 ultrafiltration membranes, and could not be separated into individual proteins without denaturation. The molecular masses of the purified proteins as determined by SDS gels was 11 kDa and 14 kDa for S100A8 and S100A9 respectively (data not shown). […] Binding to BSA coupled asialo-COO⁻ bovine lung glycopeptides immobilized on microtiter plates was inhibited in presence of 0.3 M asialo-COO⁻ glycopeptides, but much less effectively by the asialo-CONHMe-glycopeptides. In FIG. 19, each point is the mean of two determinations.
All steps were carried out at 4° C., unless otherwise indicated. […] Briefly, 100 ml peripheral blood was obtained from healthy volunteers and neutrophils obtained by Ficoll-Hypaque centrifugation as indicated above. The cells were lysed in PBS containing 1 mM DTT, 1% NP40 and protease inhibitors, and subjected to ultracentrifugation at 160,000×g for 30 min. The protein in the supernatant was adjusted to 2 mg/ml with the above buffer, and the solution stirred on ice. Solid ammonium sulfate was slowly added to a final concentration of 75% (w/v) and stirred for 1 h. […] S100A8/A9 proteins eluted at 35-50% acetonitrile, and were >90% pure as determined by SDS gels.

[5] = molecular target: the molecule itself; assay: BS3 chemical cross-linking of neutrophil extracts, immunoblot
Description: In these experiments, 96-well plates were coated with 250 ng of BSA coupled […] asialo-COO⁻ lung glycopeptides for 4 h at 37° C. and blocked with 3% BSA in PBS overnight. Human neutrophil extracts were sequentially incubated in each of four wells for 30 min/well at 37° C. in leukocyte activation buffer (described above), in presence or absence of 200 μM […] asialo-COO⁻ glycopeptides or asialo-CONHMe-glycopeptides. After incubation, the supernatants from the incubation wells were collected and protein depletion was analyzed by immunoblotting using the respective antibodies. For detection of S100A8/A9 complexes, the proteins in the supernatants were stabilized by chemical cross-linking using bis-sulfosuccinimidyl suberate (BS³) as known in the art (See, Staros, Biochem., 21:3590 [1982]). Briefly, the cross linker was added from a fresh 2 mM stock solution to neutrophil lysates obtained as described above, to a final concentration of 200 μM, and the mixture was incubated at room temperature for 30 min. Reactions were quenched by the addition of 1 M Tris to a final concentration of 10 mM and samples were stored at −80° C., until they were assayed. Cross-linked samples were incubated with 2-mercaptoethanol prior to separation on SDS-PAGE. Since crude lysates were used in the cross-linking, it is conceivable that non-specific cross-linking could occur. […]

Binder | Kd [1] [nM] | Kd [2] [nM] | Kd [3] [nM] | binding result [4] | binding result [5]
B1 | ~18.2 | ~12.6 | ~10.7 |  | 
B2 |  |  |  | binds | binds
